Source: patent publication US20200299400A1

Target: human CD73 on human cell lines (human) (UniProt P21589)
Test: cell-based or functional assay

Chain of human CD73 on human cell lines (human) (P21589 27-549): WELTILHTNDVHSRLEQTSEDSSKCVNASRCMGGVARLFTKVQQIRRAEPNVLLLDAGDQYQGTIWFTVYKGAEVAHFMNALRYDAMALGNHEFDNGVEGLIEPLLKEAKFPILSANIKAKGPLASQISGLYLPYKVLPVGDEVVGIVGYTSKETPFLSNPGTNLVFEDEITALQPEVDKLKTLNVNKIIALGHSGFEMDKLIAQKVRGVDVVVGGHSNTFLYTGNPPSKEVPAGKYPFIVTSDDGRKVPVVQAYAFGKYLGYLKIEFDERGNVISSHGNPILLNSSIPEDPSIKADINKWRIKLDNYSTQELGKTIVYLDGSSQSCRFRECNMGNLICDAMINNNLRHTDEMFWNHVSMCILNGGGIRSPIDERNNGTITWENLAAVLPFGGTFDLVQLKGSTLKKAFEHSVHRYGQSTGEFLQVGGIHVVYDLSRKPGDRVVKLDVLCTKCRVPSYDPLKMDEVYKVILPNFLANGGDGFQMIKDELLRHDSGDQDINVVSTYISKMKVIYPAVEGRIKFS

- internalization T1/2, Calu6: 36 min
- internalization T1/2, NCI-H292: 16.6 min
- internalization Ymax, Calu6: 75.6%
- internalization Ymax, NCI-H292: 78.4%
B1: mAb-CD73.4-IgG2 (antibody, V domains shown, not shown: a dimerising Fc or GST)
VH: QVQLVESGGGVVQPGRSLRLSCAASGFTFSNYGMHWVRQAPGKGLEWVAVILYDGSNKYYPDSVKGRFTISRDNSKNTLYLQMNSLRAEDTAVYYCARGGSSWYPDSFDIWGQGTMVTVSS
VL: DIQMTQSPSSLSASVGDRVTITCRASQGISSWLAWYQQKPEKAPKSLIYAASSLQSGVPSRFSGSGSGTDFTLTISSLQPEDFATYYCQQYNSYPLTFGGGTKVEIKR
